B1: human cMyBP-C C0–C2 3SD (S275D, S284D, S304D) (domain or fragment)
chain: MPEPGKKPVSAFSKKPRSVEVAAGSPAVFEAETERAGVKVRWQRGGSDISASNKYGLATEGTRHTLTVREVGPADQGSYAVIAGSSKVKFDLKVIEAEKAEPMLAPAPAPAEATGAPGEAPAPAAELGESAPSPKGSSSAALNGPTPGAPDDPIGLFVMRPQDGEVTVGGSITFSARVAGASLLKPPVVKWFKGKWVDLSSKVGQHLQLHDSYDRASKVYLFELHITDAQPAFTGSYRCEVSTKDKFDCSNFNLTVHEAMGTGDLDLLSAFRRTDLAGGGRRIDDSHEDTGILDFSSLLKKRDDFRTPRDSKLEAPAEEDVWEILRQAPPSEYERIAFQYGVTDLRGMLKRLKGMRRDEKKSTAFQKKLEPAYQVSKGHKIRLTVELADHDAEVKWLKNGQEIQMSGSKYIFESIGAKRTLTISQCSLADDAAYQCVVGGEKCSTELFVKEPPVLITRPLEDQLVMVGQRVEFECEVSEEGAQVKWLKDGVELTREETFKYRFKKDGQRHHLIINEAMLEDAGHYALCTSGGQALAELIVQEKKLEVYQSIADLMVGAKDQAVFKCEVSDENVRGVWLKNGKELVPDSRIKVSHIGRVHKLTIDDVTPADEADYSFVPEGFACNLSAKLHFMEVKIDFVPRQEPPKIHLDCPGRIPDTIVVVAGNKLRLDVPISGDPAPTVIWQKAITQGNKAPARPAPDAPEDTGDSDEWVFDKKLLCETEGRVRVETTKDRSIFTVEGAEKEDEGVYTVTVKNPVGEDQVNLTVKVIDVPDAPAAPKISNVGEDSCTVQWEPPAYDGGQPILGYILERKKKKSYRWMRLNFDLIQELSHEARRMIEGVVYEMRVYAVNAIGMSRPSPASQPFMPIGPPSEPTHLAVEDVSDTTVSLKWRPPERVGAGGLDGYSVEYCPEGCSEWVAALQGLTEHTSILVKDLPTGARLLFRVRAHNMAGPGAPVTTTEPVTVQEILQRPRLQLPRHLRQTIQKKVGEPVNLLIPFQGKPRPQVTWTKEGQPLAGEEVSIRNSPTDTILFIRAARRVHSGTYQVTVRIENMEDKATLVLQVVDKPSPPQDLRVTDAWGLNVALEWKPPQDVGNTELWGYTVQKADKKTMEWFTVLEHYRRTHCVVPELIIGNGYYFRVFSQNMVGFSDRAATTKEPVFIPRPGITYEPPNYKALDFSEAPSFTQPLVNRSVIAGYTAMLCCAVRGSPKPKISWFKNGLDLGEDARFRMFSKQGVLTLEIRKPCPFDGGIYVCRATNLQGEARCECRLEVRVPQ
B2: human cMyBP-C N-terminal domains C0–C1 (domain or fragment)
chain: MPEPGKKPVSAFSKKPRSVEVAAGSPAVFEAETERAGVKVRWQRGGSDISASNKYGLATEGTRHTLTVREVGPADQGSYAVIAGSSKVKFDLKVIEAEKAEPMLAPAPAPAEATGAPGEAPAPAAELGESAPSPKGSSSAALNGPTPGAPDDPIGLFVMRPQDGEVTVGGSITFSARVAGASLLKPPVVKWFKGKWVDLSSKVGQHLQLHDSYDRASKVYLFELHITDAQPAFTGSYRCEVSTKDKFDCSNFNLTV

Biological target: unlabeled F-actin from rabbit skeletal muscle (rabbit, UniProt P68135 1-377)

Binder	Kd [µM]
B1	7
B2	32

Reference: publication PMC6827302 (2019)
